The term Kd denotes a measure of binding affinity in units of concentration. The low end stands for a tighter complex, the high end for a looser complex. One may read the koff as a measure of how fast the partners let go of each other. Low readings indicate slow dissociation, high ones fast dissociation. In general, kon refers to a measure of how fast the partners come together. The low end stands for slower complex formation, the high end for faster complex formation.

Results on one molecule are retold here after patent US20230183366A1.

The target of this assay is Cohesin-human OX40 ectodomain protein (human) (UniProt P43489). The assay is described as follows: SPR, antibody captured on protein A, soluble cohesin-human OX40 ectodomain injected. A general note: In SPR one partner is held on a chip, and binding of the other changes the refractive index at the surface.
UniProt P43489, sequence (P43489 26-211 limits assumed, form in doubt): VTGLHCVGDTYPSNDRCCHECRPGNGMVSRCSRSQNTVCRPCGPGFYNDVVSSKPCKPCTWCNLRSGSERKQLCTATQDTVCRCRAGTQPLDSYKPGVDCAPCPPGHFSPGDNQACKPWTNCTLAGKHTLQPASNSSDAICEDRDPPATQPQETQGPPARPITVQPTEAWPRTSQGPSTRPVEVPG

B1: humanized anti OX40 Ab24 IgG1 (antibody, V domains shown)
VH: QVQLQESGPGLVKPSQTLSLTCAVYGGSFSSGYWNWIRKHPGKGLEYIGYISYNGITYHNPSLKSRITINRDTSKNQYSLQLNSVTPEDTAVYYCARYKYDYDGGHAMDYWGQGTLVTVSS
VL: DIQMTQSPSSLSASVGDRVTITCRASQDISNYLNWYQQKPGKAPKLLIYYTSKLHSGVPSRFSGSGSGTDYTLTISSLQPEDFATYYCQQGSALPWTFGQGTKVEIKR
Consider B1, for which the Kd amounted to 131 nM, the bracketed ratio of KD relative to Anti-OX40 IgG1 amounted to 1, the bracketed ratio of Ka relative to Anti-OX40 IgG1 is 1 and the bracketed ratio of kd relative to Anti-OX40 IgG1 came to 1. The koff is 0.0019 s⁻¹ and the kon was determined as 14000 M⁻¹ s⁻¹.
